Read-outs that look alike come from different tables or passages of the source.
Legend:
[1] = molecular target: HpDprA(5-217), C-terminally truncated Helicobacter pylori DprA (H. pylori strain 26695) (UniProt B5ZAA1); test: static light scattering
[2] = molecular target: HpDprA(5-217), C-terminally truncated Helicobacter pylori DprA (H. pylori strain 26695) (UniProt B5ZAA1); test: SEC
[3] = molecular target: HpDprA(5-217), C-terminally truncated Helicobacter pylori DprA (H. pylori strain 26695) (UniProt B5ZAA1); test: crystal structure
[4] = molecular target: HpDprA(5-225), C-terminally truncated Helicobacter pylori DprA (H. pylori strain 26695) (UniProt B5ZAA1)
[5] = molecular target: HpDprA(5-225), C-terminally truncated Helicobacter pylori DprA (H. pylori strain 26695) (UniProt B5ZAA1); test: crystal structure
[6] = molecular target: Full-length Helicobacter pylori DprA (DNA processing protein A, HP0333) (H. pylori strain 26695) (UniProt B5ZAA1); test: SEC
HpDprA(5-217)WT [7] = molecular target: T1, HpDprA(5-217)WT (Helicobacter pylori 26695, UniProt O25100 5-217); test: MST
T1 sequence: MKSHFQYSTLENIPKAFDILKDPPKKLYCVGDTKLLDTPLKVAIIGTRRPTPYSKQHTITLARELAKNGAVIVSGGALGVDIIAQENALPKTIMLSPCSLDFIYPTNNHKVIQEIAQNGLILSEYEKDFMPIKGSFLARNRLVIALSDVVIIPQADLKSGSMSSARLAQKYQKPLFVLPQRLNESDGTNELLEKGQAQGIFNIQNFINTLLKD

HpDprA full-length = molecular target: T2, HpDprA full-length (Helicobacter pylori 26695, UniProt O25100 1-270); test: EMSA
T2 sequence: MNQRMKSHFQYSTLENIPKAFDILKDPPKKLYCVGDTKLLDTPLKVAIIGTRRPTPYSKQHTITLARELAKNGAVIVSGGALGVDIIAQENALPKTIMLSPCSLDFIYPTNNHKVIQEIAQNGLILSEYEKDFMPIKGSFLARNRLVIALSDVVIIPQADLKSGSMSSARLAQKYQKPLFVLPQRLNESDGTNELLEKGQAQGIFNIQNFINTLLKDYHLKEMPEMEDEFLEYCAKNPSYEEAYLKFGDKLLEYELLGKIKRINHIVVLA

HpDprA(5-217)WT [8] = molecular target: T1, HpDprA(5-217)WT; test: EMSA
HpDprA(5-217)WT [9] = molecular target: T1, HpDprA(5-217)WT; test: EMSA; remark: listed apart in the source
HpDprA(5-217)WT [10] = molecular target: T1, HpDprA(5-217)WT; test: SEC/SLS

**Q.** With “HpDprA(5-217), C-terminally truncated Helicobacter pylori DprA (from UniProt B5ZAA1 5-217) (domain or fragment)” as the molecule, how does the stoichiometry N [1] read?
**A.** 2

**Q.** And the stoichiometry N [2]?
**A.** 2

**Q.** What about the stoichiometry N [3] of the same molecule?
**A.** 2

**Q.** How did the stoichiometry N [4] turn out when “HpDprA(5-225), C-terminally truncated Helicobacter pylori DprA (from UniProt B5ZAA1 5-225) (domain or fragment)” was run?
**A.** 2

**Q.** And the stoichiometry N [5]?
**A.** 2

**Q.** “Full-length Helicobacter pylori DprA (DNA processing protein A, HP0333) (from UniProt B5ZAA1 1-266) (natural protein)” was tested. Which stoichiometry N [6] did it give?
**A.** 2

**Q.** For CCACAACTGGATGATGCGGCGAAGTACTGT (ssDNA) [dR30], which Kd (HpDprA(5-217)WT [7]) is on record?
**A.** 370 ± 8.82 nM

**Q.** Does TACCTAACTGGATGAATCTGAGAACTACTGTGAAT (ssDNA) [dR35] bind (HpDprA full-length)?
**A.** binds

**Q.** Does TTTTTTTTTTTTTTTTTTTT (ssDNA) [dT20] bind (HpDprA(5-217)WT [8])?
**A.** binds

**Q.** Does TTTTTTTTTT (ssDNA) [dT10] bind (HpDprA(5-217)WT [7])?
**A.** no binding

**Q.** Does TTTTTTTTTTTTTTTTTTTTTTTTTTTTTTTTTTTTTTTT (ssDNA) [dT40] bind (HpDprA(5-217)WT [9])?
**A.** binds

**Q.** Does TTTTTT (ssDNA) [dT6] bind (HpDprA(5-217)WT [7])?
**A.** no binding

**Q.** Does TTTTTTTTTTTTTTTTTTTTTTTTTTTTTTTTTTTTTTTTTTTTTTTTTT (ssDNA) [dT50] bind (HpDprA(5-217)WT [9])?
**A.** binds

**Q.** With AAAAAAAAAAAAAAAAAAAAAAAAAAAAAAAAAAA (ssDNA) [dA35] as the molecule, how does the Kd (HpDprA(5-217)WT [7]) read?
**A.** 1200 ± 35.3 nM

B1: dT60 (ssDNA)
DNA: TTTTTTTTTTTTTTTTTTTTTTTTTTTTTTTTTTTTTTTTTTTTTTTTTTTTTTTTTTTT
**Q.** Does B1 bind (HpDprA(5-217)WT [10])?
**A.** binds

B2: dsDNA30 (dsDNA)
DNA 1: CCACAACTGGATGATGCGGCGAAGTACTGT
DNA 2: ACAGTACTTCGCCGCATCATCCAGTTGTGG
**Q.** How did the Kd (HpDprA(5-217)WT [7]) turn out when B2 was run?
**A.** 831 ± 8.48 nM
